Source: patent US20250042943A1, “FAP DETECTION” (THE UNIVERSITY COURT OF THE UNIVERSITY OF EDINBURGH, priority 2021, published 2025)

What was measured:
[1] = molecular target: T1, rhPREP (Homo sapiens, UniProt P48147); assay: Probe cleavage by recombinant human PREP; assay type: biochemical; settings: probe 5 μM, enzyme 0.1 μg/ml, read 480/530 nm
T1 sequence (P48147 1-710): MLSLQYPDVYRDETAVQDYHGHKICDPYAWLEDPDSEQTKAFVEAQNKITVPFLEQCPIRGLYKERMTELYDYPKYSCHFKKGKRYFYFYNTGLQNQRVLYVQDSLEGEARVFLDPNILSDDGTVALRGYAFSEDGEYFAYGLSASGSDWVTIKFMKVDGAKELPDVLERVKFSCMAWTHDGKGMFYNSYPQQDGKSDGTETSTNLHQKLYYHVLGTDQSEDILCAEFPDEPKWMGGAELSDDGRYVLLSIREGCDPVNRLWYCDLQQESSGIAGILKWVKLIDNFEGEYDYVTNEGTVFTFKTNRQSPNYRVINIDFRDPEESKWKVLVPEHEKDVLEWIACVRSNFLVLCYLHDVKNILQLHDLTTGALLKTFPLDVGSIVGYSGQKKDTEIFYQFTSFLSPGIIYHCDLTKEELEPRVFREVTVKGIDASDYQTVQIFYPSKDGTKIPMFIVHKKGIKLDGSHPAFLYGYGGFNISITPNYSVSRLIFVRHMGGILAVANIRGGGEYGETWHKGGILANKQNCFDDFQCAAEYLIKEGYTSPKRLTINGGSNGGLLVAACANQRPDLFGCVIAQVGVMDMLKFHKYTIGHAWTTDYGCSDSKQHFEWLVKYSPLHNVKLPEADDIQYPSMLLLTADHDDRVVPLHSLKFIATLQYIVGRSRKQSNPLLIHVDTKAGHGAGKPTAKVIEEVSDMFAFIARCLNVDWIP

[2] = system: activated neutrophil lysate; assay: Assessment on activated neutrophil lysate; settings: data not shown
[3] = molecular target: rhDPPIV (Homo sapiens, UniProt P27487); assay: Probe cleavage by recombinant human DPPIV (exopeptidase activity); assay type: biochemical; settings: probe 5 μM, enzyme 0.1 μg/ml, read 480/530 nm
rhDPPIV, sequence (P27487 whole entry): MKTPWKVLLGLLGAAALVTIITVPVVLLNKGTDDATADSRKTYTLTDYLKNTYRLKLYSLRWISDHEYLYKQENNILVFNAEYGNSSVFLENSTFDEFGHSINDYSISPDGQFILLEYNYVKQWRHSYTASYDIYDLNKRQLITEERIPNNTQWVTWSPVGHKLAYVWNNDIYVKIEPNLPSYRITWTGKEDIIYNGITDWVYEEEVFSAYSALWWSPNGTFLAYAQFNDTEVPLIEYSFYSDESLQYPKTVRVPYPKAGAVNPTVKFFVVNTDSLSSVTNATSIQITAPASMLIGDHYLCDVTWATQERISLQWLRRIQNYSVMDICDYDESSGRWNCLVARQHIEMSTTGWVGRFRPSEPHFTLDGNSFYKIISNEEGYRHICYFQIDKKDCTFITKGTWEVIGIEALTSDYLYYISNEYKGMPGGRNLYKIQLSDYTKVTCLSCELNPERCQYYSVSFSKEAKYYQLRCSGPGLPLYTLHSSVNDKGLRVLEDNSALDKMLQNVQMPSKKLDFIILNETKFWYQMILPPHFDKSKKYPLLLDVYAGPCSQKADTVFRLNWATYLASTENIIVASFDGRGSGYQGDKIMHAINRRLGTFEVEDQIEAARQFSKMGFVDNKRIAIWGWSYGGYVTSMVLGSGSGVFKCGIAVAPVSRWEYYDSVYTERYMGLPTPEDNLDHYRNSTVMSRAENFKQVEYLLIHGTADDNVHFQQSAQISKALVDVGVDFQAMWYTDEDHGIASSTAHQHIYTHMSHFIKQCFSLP

[4] = molecular target: T2, rhFAP (Homo sapiens, UniProt Q12884); assay: Probe cleavage by recombinant human FAP (fluorescence read); assay type: biochemical
T2 sequence (Q12884 1-760): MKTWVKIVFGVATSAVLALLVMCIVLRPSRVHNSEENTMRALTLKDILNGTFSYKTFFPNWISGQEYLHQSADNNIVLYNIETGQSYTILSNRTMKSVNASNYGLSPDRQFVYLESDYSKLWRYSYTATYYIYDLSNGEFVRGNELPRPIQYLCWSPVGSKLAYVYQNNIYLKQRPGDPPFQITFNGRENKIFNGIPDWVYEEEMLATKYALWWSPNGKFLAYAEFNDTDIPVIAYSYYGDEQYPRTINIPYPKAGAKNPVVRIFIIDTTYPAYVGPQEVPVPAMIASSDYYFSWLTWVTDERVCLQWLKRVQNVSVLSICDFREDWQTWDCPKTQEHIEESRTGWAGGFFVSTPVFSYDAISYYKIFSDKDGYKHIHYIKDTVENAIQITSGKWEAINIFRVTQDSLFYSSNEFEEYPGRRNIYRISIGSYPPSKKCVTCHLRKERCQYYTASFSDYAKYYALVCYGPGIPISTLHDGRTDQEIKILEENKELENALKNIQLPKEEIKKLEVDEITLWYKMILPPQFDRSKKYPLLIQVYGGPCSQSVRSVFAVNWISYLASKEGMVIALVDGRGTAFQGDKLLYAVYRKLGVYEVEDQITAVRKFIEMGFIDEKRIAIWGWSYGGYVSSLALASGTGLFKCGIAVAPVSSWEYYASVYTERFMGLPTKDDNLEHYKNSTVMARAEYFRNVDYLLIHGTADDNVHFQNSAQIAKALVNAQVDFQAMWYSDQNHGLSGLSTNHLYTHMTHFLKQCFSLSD

[5] = molecular target: T3, FAP (Homo sapiens, UniProt Q12884); settings: Bainbridge et al; cited from earlier work
T3 sequence (Q12884 24-760 limits assumed): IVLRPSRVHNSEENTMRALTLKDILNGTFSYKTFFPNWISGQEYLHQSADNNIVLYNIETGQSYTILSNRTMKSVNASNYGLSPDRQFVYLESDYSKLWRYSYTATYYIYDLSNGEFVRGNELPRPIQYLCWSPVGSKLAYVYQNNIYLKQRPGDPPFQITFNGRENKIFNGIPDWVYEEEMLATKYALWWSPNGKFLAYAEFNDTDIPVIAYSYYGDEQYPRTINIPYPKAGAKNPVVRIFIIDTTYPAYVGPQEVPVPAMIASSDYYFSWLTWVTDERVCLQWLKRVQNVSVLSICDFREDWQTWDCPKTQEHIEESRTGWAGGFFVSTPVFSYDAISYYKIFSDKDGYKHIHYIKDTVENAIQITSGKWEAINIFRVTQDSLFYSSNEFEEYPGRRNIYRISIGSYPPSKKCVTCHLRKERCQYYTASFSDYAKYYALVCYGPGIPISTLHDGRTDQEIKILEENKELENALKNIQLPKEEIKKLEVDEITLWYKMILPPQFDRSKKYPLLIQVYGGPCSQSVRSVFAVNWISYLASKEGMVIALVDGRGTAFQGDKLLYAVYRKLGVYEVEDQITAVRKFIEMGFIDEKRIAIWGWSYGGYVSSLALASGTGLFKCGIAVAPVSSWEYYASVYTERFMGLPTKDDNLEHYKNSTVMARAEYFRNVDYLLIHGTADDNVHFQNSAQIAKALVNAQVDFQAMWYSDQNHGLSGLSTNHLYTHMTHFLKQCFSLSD

Row | cleavage by rhPREP [1] | cleavage by rhPREP ([1]; listed as FAP-sp) | cleavage by rhDPPIV (exopeptidase activity) [3] | signal (relative fluorescence intensity) with rhFAP ([4]; comparison between probe iterations) | FAP specificity (over PREP) ([4]; from recombinant enzyme assessment) | Substance | MALDI-TOF analysis of probe after activated neutrophil lysate [2] | specificity over PREP [5]
1 | no cleavage | no rhPREP cleavage | no cleavage | improved signal characteristics | FAP specificity | Lys(MethylRed)-Val-(D)Ser-Pro-Ser-Gln-Gly-Lys(5-FAM)-[Peg2-(D)Lys]3-NH2 [FAP-sP, reference compound] | all FAP-sP probe was cleaved | 
2 |  |  |  |  |  | VsPSQG |  | specificity over PREP
